{
  "source": "patent US20220073631A1",
  "about": "(QYUNS THERAPEUTICS, published 2022)",
  "binders": {"B1": {"name": "QX005N (PD2-31) (antibody, V domains shown)", "VH": "EVQLVESGGGLVQPGGSLRLSCAASGIDLRTNSMSWVRQAPGKGLEWVGIIGSSGYMDYASWAKGRFTISRDNSKNTLYLQMNSLRAEDTAVYYCARHGDSSSFALWGQGTLVTVSS", "VL": "DIQMTQSPSSLSASVGDRVTITCRASESVYKNNRLSWYQQKPGKAPKLLIYEASKVASGVPSRFSGSGSGTDFTLTISSLQPEDFATYYCAGAYRGNIYPFGQGTKVEIK", "notes": "Humanized from rabbit clone #2, expressed as a full antibody in ExpiCHO-S cells (heavy chain 48.5 kDa, light chain 23.7 kDa)"}},
  "key": {"[1]": {"target": "IL-4Rα on human cells (HEK Blue IL-4/IL-13, A549, TF-1, HFL-1, PBMCs) (human, UniProt P24394 26-825)", "experiment": "cell-based or functional assay"}, "[2]": {"target": "T1, extracellular domain of marmoset IL-4Rα (Gly 24-His 232) with C-terminus his-tag (marmoset)", "T1 construct": "range 24-232; Made in HEK 293F cells and purified on nickel", "experiment": "SPR, Biacore T200, by the methods of Example 2"}, "hIL-4Rα-Mu241": {"target": "T2, hIL-4Rα-Mu241 (human, UniProt P24394 26-232)", "T2 construct": "Printed positions fit the mature protein; also called D67A/V68R/V69F; not shown: C-terminal his-tag", "T2 chain": "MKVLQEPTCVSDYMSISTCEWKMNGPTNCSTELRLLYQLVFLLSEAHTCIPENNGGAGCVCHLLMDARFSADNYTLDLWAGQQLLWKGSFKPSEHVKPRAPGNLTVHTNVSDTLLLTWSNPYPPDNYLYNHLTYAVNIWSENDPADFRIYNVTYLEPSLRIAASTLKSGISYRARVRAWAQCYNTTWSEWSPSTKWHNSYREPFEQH", "experiment": "SPR, Biacore T200, by the methods of Example 2", "procedure": "(§1) The protein A was chemically coupled to a CM5 chip, and an appropriate amount of the antibody was immobilized by a capture method such that the Rmax was less than 50 RU and the flow rate for the capture was 10 μl/min. The antigen was subject to gradient dilution, and the flow rate in the instrument was switched to 30 μl/min. The antigen was flowed through the reference channel and the channel with the immobilized antibody sequentially in an ascending order of concentration, and the running buffer was flowed through as a negative control. After each binding and dissociation was complete, the chip was regenerated with glycine, pH 1.5. Fitting was performed with the build-in software in the instrument according to a 1:1 binding model. The binding rate constant kₐ, the dissociation rate constant kd, and the equilibrium dissociation constant KD values of the antibody were calculated. Dupilumab was obtained by purchasing a commercially available medicine.\n(§2) To further narrow down the key amino acids that PD2-31 binds to, multiple mutants of hIL-4Rα were designed in Loop 2 (V40FLLSEA46) and Loop 3 (M65[…]73) (Table 2). The wild-type hIL-4Rα (hIL-4Rα-ECD) and hIL-4Rα mutants were prepared using standard techniques. Briefly, the expression plasmids containing the extracellular domain of wild-type hIL-4Rα and different mutated hIL-4Rα were constructed and transfected into HEK 293F cells. After expression, the extracellular domain of wild-type hIL-4Rα and hIL-4Rα mutants with C-terminus his-tag were purified by Nickel chromatography. Purified proteins of wild-type hIL-4Rα and hIL-4Rα mutants were analyzed for interaction with PD2-31 and Dupilumab. The interaction was studied by Biacore T200, according to the methods in Example 2."}, "hIL-4Rα-Mu242": {"target": "T3, hIL-4Rα-Mu242 (human, UniProt P24394 26-232)", "T3 construct": "Printed positions fit the mature protein; also called V68R/V69F/S70Q; not shown: C-terminal his-tag", "T3 chain": "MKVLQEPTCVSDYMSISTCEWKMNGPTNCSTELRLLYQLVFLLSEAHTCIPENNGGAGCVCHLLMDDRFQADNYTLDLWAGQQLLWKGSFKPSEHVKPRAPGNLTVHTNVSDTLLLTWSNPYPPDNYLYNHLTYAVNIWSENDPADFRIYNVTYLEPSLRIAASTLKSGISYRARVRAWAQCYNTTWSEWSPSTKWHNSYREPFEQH", "experiment": "SPR, Biacore T200, by the methods of Example 2", "procedure": "as §1, §2"}, "hIL-4Rα-Mu244": {"target": "T4, hIL-4Rα-Mu244 (human, UniProt P24394 26-232)", "T4 construct": "Printed positions fit the mature protein; also called S70Q/A71L/D72R; not shown: C-terminal his-tag", "T4 chain": "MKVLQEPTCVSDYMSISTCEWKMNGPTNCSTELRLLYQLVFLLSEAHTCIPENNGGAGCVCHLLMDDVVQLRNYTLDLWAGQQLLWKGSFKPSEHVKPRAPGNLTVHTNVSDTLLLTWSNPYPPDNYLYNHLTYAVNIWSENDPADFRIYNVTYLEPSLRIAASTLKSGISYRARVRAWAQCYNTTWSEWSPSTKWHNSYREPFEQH", "experiment": "SPR, Biacore T200, by the methods of Example 2", "procedure": "as §1, §2"}, "hIL-4Rα-Mu453": {"target": "T5, hIL-4Rα-Mu453 (human, UniProt P24394 26-232)", "T5 construct": "Printed positions fit the mature protein; also called D66A/D67A; not shown: C-terminal his-tag", "experiment": "SPR, Biacore T200, by the methods of Example 2", "procedure": "as §1, §2"}, "hIL-4Rα-Mu240": {"target": "T6, hIL-4Rα-Mu240 (human, UniProt P24394 26-232)", "T6 construct": "Printed positions fit the mature protein; also called D66A/D67A/V68R; not shown: C-terminal his-tag", "T6 chain": "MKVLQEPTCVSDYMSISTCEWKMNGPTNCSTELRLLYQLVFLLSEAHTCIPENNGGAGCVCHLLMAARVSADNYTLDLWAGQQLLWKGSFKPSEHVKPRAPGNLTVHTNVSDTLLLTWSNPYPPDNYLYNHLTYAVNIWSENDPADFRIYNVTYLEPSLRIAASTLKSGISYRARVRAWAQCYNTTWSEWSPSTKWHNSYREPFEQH", "experiment": "SPR, Biacore T200, by the methods of Example 2", "procedure": "as §1, §2"}, "[3]": {"target": "T7, human IL-4Rα (Shanghai Novoprotein Technology Co., Ltd) (human, UniProt P24394 26-232)", "T7 construct": "Bought protein; also called hIL-4Rα; human interleukin-4 receptor alpha", "experiment": "SPR, Biacore T200, antibody captured on protein A, antigen as analyte, 25 C, 1:1 model", "procedure": "as §1"}},
  "data": [
    {"binder": "B1", "values": [
      {"measurement": "IC50, IL-4-induced CCL-11 release activity in HFL-1 cells (FIG. 7(A))", "setting": "[1]", "result": 0.0431, "unit": "µg/mL"},
      {"measurement": "IC50, IL-4-induced CCL-17 release activity in A549 cells (FIG. 5(A))", "setting": "[1]", "result": 0.0326, "unit": "µg/mL"},
      {"measurement": "IC50, IL-4-induced CCL-17 release activity in PBMCs (FIG. 9(A))", "setting": "[1]", "result": 0.0248, "unit": "µg/mL"},
      {"measurement": "IC50, IL-4-induced STAT6 phosphorylation activity in HEK Blue IL-4/IL-13 cells (FIG. 4(A))", "setting": "[1]", "result": 0.00319, "unit": "µg/mL"},
      {"measurement": "IC50, IL-4-induced proliferation activity of TF-1 cells (FIG. 6(A))", "setting": "[1]", "result": 0.0139, "unit": "µg/mL"},
      {"measurement": "IC50, IL-13-induced CCL-11 release activity in HFL-1 cells (FIG. 7(C))", "setting": "[1]", "result": 0.0385, "unit": "µg/mL"},
      {"measurement": "IC50, IL-13-induced CCL-17 release activity in A549 cells (FIG. 5(C))", "setting": "[1]", "result": 0.0289, "unit": "µg/mL"},
      {"measurement": "IC50, IL-13-induced CCL-17 release activity in PBMCs (FIG. 9(C))", "setting": "[1]", "result": 0.0686, "unit": "µg/mL"},
      {"measurement": "IC50, IL-13-induced STAT6 phosphorylation activity in HEK Blue IL-4/IL-13 cells (FIG. 4(C))", "setting": "[1]", "result": 0.00878, "unit": "µg/mL"},
      {"measurement": "IC50, IL-13-induced proliferation activity of TF-1 cells (FIG. 6(C))", "setting": "[1]", "result": 0.0155, "unit": "µg/mL"},
      {"measurement": "Kd", "setting": "[2]", "result": "~0.1", "unit": "nM"},
      {"measurement": "Kd", "setting": "hIL-4Rα-Mu241", "result": 0.474, "unit": "nM"},
      {"measurement": "koff", "setting": "hIL-4Rα-Mu241", "result": "6.59e-05", "unit": "s⁻¹"},
      {"measurement": "kon", "setting": "hIL-4Rα-Mu241", "result": 139000, "unit": "M⁻¹ s⁻¹"},
      {"measurement": "Kd", "setting": "hIL-4Rα-Mu242", "result": 0.979, "unit": "nM"},
      {"measurement": "koff", "setting": "hIL-4Rα-Mu242", "result": 0.000138, "unit": "s⁻¹"},
      {"measurement": "kon", "setting": "hIL-4Rα-Mu242", "result": 141000, "unit": "M⁻¹ s⁻¹"},
      {"measurement": "Kd", "setting": "hIL-4Rα-Mu244", "result": 1.1, "unit": "nM"},
      {"measurement": "koff", "setting": "hIL-4Rα-Mu244", "result": 0.000104, "unit": "s⁻¹"},
      {"measurement": "kon", "setting": "hIL-4Rα-Mu244", "result": 94500, "unit": "M⁻¹ s⁻¹"},
      {"measurement": "Kd", "setting": "hIL-4Rα-Mu453", "result": 0.663, "unit": "nM"},
      {"measurement": "koff", "setting": "hIL-4Rα-Mu453", "result": 0.000118, "unit": "s⁻¹"},
      {"measurement": "kon", "setting": "hIL-4Rα-Mu453", "result": 178000, "unit": "M⁻¹ s⁻¹"},
      {"measurement": "Kd", "setting": "hIL-4Rα-Mu240", "result": 0.75, "unit": "nM"},
      {"measurement": "koff", "setting": "hIL-4Rα-Mu240", "result": "5.23e-05", "unit": "s⁻¹"},
      {"measurement": "kon", "setting": "hIL-4Rα-Mu240", "result": 69800, "unit": "M⁻¹ s⁻¹"},
      {"measurement": "Kd", "setting": "[3]", "result": 0.378, "unit": "nM"},
      {"measurement": "koff", "setting": "[3]", "result": 0.000236, "unit": "s⁻¹"},
      {"measurement": "kon", "setting": "[3]", "result": 612000, "unit": "M⁻¹ s⁻¹"}
    ]}
  ]
}
